For 1 substance, Km results are on record in PMC5399792.

Broadly, the Km is the concentration of substrate that gives half-maximal velocity.

The series has as its system Nc1nc2c(ncn2[C@@H]2O[C@H](COP(=O)(O)O[C@H]3[C@@H](O)[C@H](n4cnc5c(N)ncnc54)O[C@@H]3CO)[C@@H](O)[C@H]2O)c(=O)[nH]1. In words: purified protein, by the assay type. The conditions noted are these: pH 7.4; 24.0 °C.

Consider “influenza B polymerase initiating RNA synthesis at the vRNA promoter (vPol) (Influenza B virus (B/Memphis/13/2003))”, for which the Michaelis-Menten constant (Km) was found to be 58 ± 18 µM.
